FireProtDB (doi:10.1073/pnas.84.13.4441)

Conditions: Escherichia coli (strain K12), 25 °C, GdnHCl, CD, Potassium phosphate 20 mM, reversible: yes, whole UniProt chain shown

B1: Tryptophan synthase alpha chain wild type, P0A877 (protein)
chain: MERYESLFAQLKERKEGAFVPFVTLGDPGIEQSLKIIDTLIEAGADALELGIPFSDPLADGPTIQNATLRAFAAGVTPAQCFEMLALIRQKHPTIPIGLLMYANLVFNKGIDEFYAQCEKVGVDSVLVADVPVEESAPFRQAALRHNVAPIFICPPNADDDLLRQIASYGRGYTYLLSRAGVTGAENRAALPLNHLVAKLKEYNAAPPLQGFGISAPDQVKAAIDAGAAGAISGSAIVKIIEQHINEPEKMLAALKVFVQPMKAATRS
unfolding free energy (pH 7): 18.2 kcal/mol | unfolding free energy (pH 9): 18 kcal/mol
